In the supplement of paper PMC5998384:

Experiments:
HeLa Kyoto [1] = test: melting temperature (median over replicates), in situ; higher = more thermally stable
HeLa Kyoto [2] = test: thermal stability score vs G1/S (z-score of summed log2 fold changes over temperatures); higher = more thermally stable than in G1/S
HeLa Kyoto [3] = test: solubility in G1/S (NP-40 vs SDS abundance) (log2 ratio); higher = more soluble; conditions: cell cycle stage: G1/S
HeLa Kyoto [4] = test: solubility change mitosis vs G1/S (difference of NP-40 vs SDS log2 ratios) (log2 ratio difference); higher = more soluble in mitosis
[5] = cell cycle stage: early G1 (4.5 h after nocodazole release)
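Wherever melting temperature (median over replicates), in situ is given: HeLa Kyoto cells synchronized by double thymidine or nocodazole block, proteins quantified by TMT10plex mass spectrometry, three independent biological replicates.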
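Wherever solubility change mitosis vs G1/S (difference of NP-40 vs SDS log2 ratios) is given: synchronized HeLa Kyoto cells (double thymidine block for G1/S, nocodazole release for mitosis), protein amounts in NP-40 versus SDS lysates quantified by mass spectrometry, three biological replicates.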
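Wherever solubility in G1/S (NP-40 vs SDS abundance) is given: HeLa Kyoto cells arrested at G1/S by double thymidine block, proteins quantified by TMT10plex mass spectrometry in mild NP-40 versus SDS extracts, three biological replicates.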
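Wherever thermal stability score vs G1/S (z-score of summed log2 fold changes over temperatures) is given: synchronized HeLa Kyoto cells, proteins quantified by TMT10plex mass spectrometry, three biological replicates, mitosis taken 0.5 h after nocodazole release, G1/S directly after double thymidine block.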

Row | Sequence | melting temperature (HeLa Kyoto [1]; cell cycle stage: G1/S) [°C] | melting temperature (HeLa Kyoto [1]; cell cycle stage: mitosis) [°C] | thermal stability score (HeLa Kyoto [2]; [5]) | thermal stability score (HeLa Kyoto [2]; cell cycle stage: mitosis) | solubility in G1/S (log2) (HeLa Kyoto [3]) | solubility change mitosis (log2) (HeLa Kyoto [4])
1 | MDFPCLWLGLLLPLVAALDFNYHRQEGMEAFLKTVAQNYSSVTHLHSIGKSVKGRNLWVLVVGRFPKEHRIGIPEFKYVANMHGDETVGRELLLHLIDYLVTSDGKDPEITNLINSTRIHIMPSMNPDGFEAVKKPDCYYSIGRENYNQYDLNRNFPDAFEYNNVSRQPETVAVMKWLKTETFVLSANLHGGALVASYPFDNGVQATGALYSRSLTPDDDVFQYLAHTYASRNPNMKKGDECKNKMNFPNGVTNGYSWYPLQGGMQDYNYIWAQCFEITLELSCCKYPREEKLPSFWNNNKASLIEYIKQVHLGVKGQVFDQNGNPLPNVIVEVQDRKHICPYRTNKYGEYYLLLLPGSYIINVTVPGHDPHITKVIIPEKSQNFSALKKDILLPFQGQLDSIPVSNPSCPMIPLYRNLPDHSAATKPSLFLFLVSLLHIFFK | 57.6 | 56.3 | 2.04 | 3.27 | 0.0898 | -0.0348
2 | MDFSRNLYDIGEQLDSEDLASLKFLSLDYIPQRKQEPIKDALMLFQRLQEKRMLEESNLSFLKELLFRINRLDLLITYLNTRKEEMERELQTPGRAQISAYRVMLYQISEEVSRSELRSFKFLLQEEISKCKLDDDMNLLDIFIEMEKRVILGEGKLDILKRVCAQINKSLLKIINDYEEFSKERSSSLEGSPDEFSNGEELCGVMTISDSPREQDSESQTLDKVYQMKSKPRGYCLIINNHNFAKAREKVPKLHSIRDRNGTHLDAGALTTTFEELHFEIKPHDDCTVEQIYEILKIYQLMDHSNMDCFICCILSHGDKGIIYGTDGQEAPIYELTSQFTGLKCPSLAGKPKVFFIQACQGDNYQKGIPVETDSEEQPYLEMDLSSPQTRYIPDEADFLLGMATVNNCVSYRNPAEGTWYIQSLCQSLRERCPRGDDILTILTEVNYEVSNKDDKKNMGKQMPQPTFTLRKKLVFPSD [CASP8] | 48.5 | 48.7 | 0.959 | 2 | 0.075 | -0.167
3 | MDFTAQPKPATALCGVVSADGKIAYPPGVKEITDKITTDEMIKRLKMVVKTFMDMDQDSEDEKQQYLPLALHLASEFFLRNPNKDVRLLVACCLADIFRIYAPEAPYTSHDKLKDIFLFITRQLKGLEDTKSPQFNRYFYLLENLAWVKSYNICFELEDCNEIFIQLFRTLFSVINNSHNKKVQMHMLDLMSSIIMEGDGVTQELLDSILINLIPAHKNLNKQSFDLAKVLLKRTVQTIEACIANFFNQVLVLGRSSVSDLSEHVFDLIQELFAIDPHLLLSVMPQLEFKLKSNDGEERLAVVRLLAKLFGSKDSDLATQNRPLWQCFLGRFNDIHVPVRLESVKFASHCLMNHPDLAKDLTEYLKVRSHDPEEAIRHDVIVTIITAAKRDLALVNDQLLGFVRERTLDKRWRVRKEAMMGLAQLYKKYCLHGEAGKEAAEKVSWIKDKLLHIYYQNSIDDKLLVEKIFAQYLVPHNLETEERMKCLYYLYASLDPNAVKALNEMWKCQNMLRSHVRELLDLHKQPTSEANCSAMFGKLMTIAKNLPDPGKAQDFVKKFNQVLGDDEKLRSQLELLISPTCSCKQADICVREIARKLANPKQPTNPFLEMVKFLLERIAPVHIDSEAISALVKLMNKSIEGTADDEEEGVSPDTAIRSGLELLKVLSFTHPTSFHSAETYESLLQCLRMEDDKVAEAAIQIFRNTGHKIETDLPQIRSTLIPILHQKAKRGTPHQAKQAVHCIHAIFTNKEVQLAQIFEPLSRSLNADVPEQLITPLVSLGHISMLAPDQFASPMKSVVANFIVKDLLMNDRSTGEKNGKLWSPDEEVSPEVLAKVQAIKLLVRWLLGMKNNQSKSANSTLRLLSAMLVSEGDLTEQKRISKSDMSRLRLAAGSAIMKLAQEPCYHEIITPEQFQLCALVINDECYQVRQIFAQKLHKALVKLLLPLEYMAIFALCAKDPVKERRAHARQCLLKNISIRREYIKQNPMATEKLLSLLPEYVVPYMIHLLAHDPDFTRSQDVDQLRDIKECLWFMLEVLMTKNENNSHAFMKKMAENIKLTRDAQSPDESKTNEKLYTVCDVALCVINSKSALCNADSPKDPVLPMKFFTQPEKDFCNDKSYISEETRVLLLTGKPKPAGVLGAVNKPLSATGRKPYVRSTGTETGSNINVNSELNPSTGNRSREQSSEAAETGVSENEENPVRIISVTPVKNIDPVKNKEINSDQATQGNISSDRGKKRTVTAAGAENIQQKTDEKVDESGPPAPSKPRRGRRPKSESQGNATKNDDLNKPINKGRKRAAVGQESPGGLEAGNAKAPKLQDLAKKAAPAERQIDLQR [PDS5A] | 47.2 | 48.7 | 5.43 | 11.2 | -0.0007 | -0.126
4 | MDGEEKTYGGCEGPDAMYVKLISSDGHEFIVKREHALTSGTIKAMLSGPGQFAENETNEVNFREIPSHVLSKVCMYFTYKVRYTNSSTEIPEFPIAPEIALELLMAANFLDC [TCEB1] | 52.2 | 52.3 | -1.38 | -1.62 | 0.256 | -0.0906
5 | MDGLLNPRESSKFIAENSRDVFIDSGGVRRVAELLLAKAAGPELRVEGWKALHELNPRAADEAAVNWVFVTDTLNFSFWSEQDEHKCVVRYRGKTYSGYWSLCAAVNRALDEGIPITSASYYATVTLDQVRNILRSDTDVSMPLVEERHRILNETGKILLEKFGGSFLNCVRESENSAQKLMHLVVESFPSYRDVTLFEGKRVSFYKRAQILVADTWSVLEGKGDGCFKDISSITMFADYRLPQVLAHLGALKYSDDLLKKLLKGEMLSYGDRQEVEIRGCSLWCVELIRDCLLELIEQKGEKPNGEINSILLDYYLWDYAHDHREDMKGIPFHRIRCIYY [C9ORF64] | 50.2 | 49.7 | -1.65 | 0.153 | -0.318 | -0.283
6 | MDGTRTSLDIEEYSDTEVQKNQVLTLEEWQDKWVNGKTAFHQEQGHQLLKKHLDTFLKGKSGLRVFFPLCGKAVEMKWFADRGHSVVGVEISELGIQEFFTEQNLSYSEEPITEIPGTKVFKSSSGNISLYCCSIFDLPRTNIGKFDMIWDRGALVAINPGDRKCYADTMFSLLGKKFQYLLCVLSYDPTKHPGPPFYVPHAEIERLFGKICNIRCLEKVDAFEERHKSWGIDCLFEKLYLLTEK [TPMT] | 54 | 54 | -0.85 | -0.417 | 0.0374 | -0.18
7 | MDKLKKVLSGQDTEDRSGLSEVVEASSLSWSTRIKGFIACFAIGILCSLLGTVLLWVPRKGLHLFAVFYTFGNIASIGSTIFLMGPVKQLKRMFEPTRLIATIMVLLCFALTLCSAFWWHNKGLALIFCILQSLALTWYSLSFIPFARDAVKKCFAVCLA [SFT2D2] | 57.4 | 61.1 | -0.835 | -0.774 | 0.0285 | 0.0654
8 | MDKNELVQKAKLAEQAERYDDMAACMKSVTEQGAELSNEERNLLSVAYKNVVGARRSSWRVVSSIEQKTEGAEKKQQMAREYREKIETELRDICNDVLSLLEKFLIPNASQAESKVFYLKMKGDYYRYLAEVAAGDDKKGIVDQSQQAYQEAFEISKKEMQPTHPIRLGLALNFSVFYYEILNSPEKACSLAKTAFDEAIAELDTLSEESYKDSTLIMQLLRDNLTLWTSDTQGDEAEAGEGGEN [YWHAZ] | 54.9 | 54.8 | -3.76 | -3.47 | 0.359 | 0.346
9 | MDLLPPKPKYNPLRNESLSSLEEGASGSTPPEELPSPSASSLGPILPPLPGDDSPTTLCSFFPRMSNLRLANPAGGRPGSKGEPGRAADDGEGIVGAAMPDSGPLPLLQDMNKLSGGGGRRTRVEGGQLGGEEWTRHGSFVNKPTRGWLHPNDKVMGPGVSYLVRYMGCVEVLQSMRALDFNTRTQVTREAISLVCEAVPGAKGATRRRKPCSRPLSSILGRSNLKFAGMPITLTVSTSSLNLMAADCKQIIANHHMQSISFASGGDPDTAEYVAYVAKDPVNQRACHILECPEGLAQDVISTIGQAFELRFKQYLRNPPKLVTPHDRMAGFDGSAWDEEEEEPPDHQYYNDFPGKEPPLGGVVDMRLREGAAPGAARPTAPNAQTPSHLGATLPVGQPVGGDPEVRKQMPPPPPCPGRELFDDPSYVNVQNLDKARQAVGGAGPPNPAINGSAPRDLFDMKPFEDALRVPPPPQSVSMAEQLRGEPWFHGKLSRREAEALLQLNGDFLVRESTTTPGQYVLTGLQSGQPKHLLLVDPEGVVRTKDHRFESVSHLISYHMDNHLPIISAGSELCLQQPVERKL [SHC1] | 52.5 | 52.9 | -1.86 | -2.06 | 0.307 | -0.067
10 | MDLMNGQASSVNIAATASEKSSSSESLSDKGSELKKSFDAVVFDVLKVTPEEYAGQITLMDVPVFKAIQPDELSSCGWNKKEKYSSAPNAVAFTRRFNHVSFWVVREILHAQTLKIRAEVLSHYIKTAKKLYELNNLHALMAVVSGLQSAPIFRLTKTWALLSRKDKTTFEKLEYVMSKEDNYKRLRDYISSLKMTPCIPYLGIYLSDLTYIDSAYPSTGSILENEQRSNLMNNILRIISDLQQSCEYDIPMLPHVQKYLNSVQYIEELQKFVEDDNYKLSLKIEPGTSTPRSAASREDLVGPEVGASPQSGRKSVAAEGALLPQTPPSPRNLIPHGHRKCHSLGYNFIHKMNTAEFKSATFPNAGPRHLLDDSVMEPHAPSRGQAESSTLSSGISIGSSDGSELSEETSWPAFERNRLYHSLGPVTRVARNGYRSHMKASSSAESEDLAVHLYPGAVTIQGVLRRKTLLKEGKKPTVASWTKYWAALCGTQLFYYAAKSLKATERKHFKSTSNKNVSVIGWMVMMADDPEHPDLFLLTDSEKGNSYKFQAGNRMNAMLWFKHLSAACQSNKQQVPTNLMTFE [RALGPS2] | 51 | 50.5 | -0.455 | -0.819 | 0.0658 | -0.165
11 | MDLRVGQRPPVEPPPEPTLLALQRPQRLHHHLFLAGLQQQRSVEPMRLSMDTPMPELQVGPQEQELRQLLHKDKSKRSAVASSVVKQKLAEVILKKQQAALERTVHPNSPGIPYRTLEPLETEGATRSMLSSFLPPVPSLPSDPPEHFPLRKTVSEPNLKLRYKPKKSLERRKNPLLRKESAPPSLRRRPAETLGDSSPSSSSTPASGCSSPNDSEHGPNPILGSEALLGQRLRLQETSVAPFALPTVSLLPAITLGLPAPARADSDRRTHPTLGPRGPILGSPHTPLFLPHGLEPEAGGTLPSRLQPILLLDPSGSHAPLLTVPGLGPLPFHFAQSLMTTERLSGSGLHWPLSRTRSEPLPPSATAPPPPGPMQPRLEQLKTHVQVIKRSAKPSEKPRLRQIPSAEDLETDGGGPGQVVDDGLEHRELGHGQPEARGPAPLQQHPQVLLWEQQRLAGRLPRGSTGDTVLLPLAQGGHRPLSRAQSSPAAPASLSAPEPASQARVLSSSETPARTLPFTTGLIYDSVMLKHQCSCGDNSRHPEHAGRIQSIWSRLQERGLRSQCECLRGRKASLEELQSVHSERHVLLYGTNPLSRLKLDNGKLAGLLAQRMFVMLPCGGVGVDTDTIWNELHSSNAARWAAGSVTDLAFKVASRELKNGFAVVRPPGHHADHSTAMGFCFFNSVAIACRQLQQQSKASKILIVDWDVHHGNGTQQTFYQDPSVLYISLHRHDDGNFFPGSGAVDEVGAGSGEGFNVNVAWAGGLDPPMGDPEYLAAFRIVVMPIAREFSPDLVLVSAGFDAAEGHPAPLGGYHVSAKCFGYMTQQLMNLAGGAVVLALEGGHDLTAICDASEACVAALLGNRVDPLSEEGWKQKPNLNAIRSLEAVIRVHSKYWGCMQRLASCPDSWVPRVPGADKEEVEAVTALASLSVGILAEDRPSEQLVEEEEPMNL [HDAC7] | 53 | 52.3 | 0.178 | -0.224 | 0.129 | 0.0342
12 | MDLWPGAWMLLLLLFLLLLFLLPTLWFCSPSAKYFFKMAFYNGWILFLAVLAIPVCAVRGRNVENMKILRLMLLHIKYLYGIRVEVRGAHHFPPSQPYVVVSNHQSSLDLLGMMEVLPGRCVPIAKRELLWAGSAGLACWLAGVIFIDRKRTGDAISVMSEVAQTLLTQDVRVWVFPEGTRNHNGSMLPFKRGAFHLAVQAQVPIVPIVMSSYQDFYCKKERRFTSGQCQVRVLPPVPTEGLTPDDVPALADRVRHSMLTVFREISTDGRGGGDYLKKPGGGG [AGPAT1] | 53.3 | 52.7 | 0.708 | 0.125 | -0.318 | 0.0448
